Test results published in patent US20230057847A1, “GLP2 RECEPTOR AGONISTS AND METHODS OF USE” (The Scripps Research Institute, priority 2019, published 2023).
Bridges are numbered along the chain shown (N, C = ends). Where no end group is shown, it is not given here. [ ]: non-standard residue; d: D form. Nle = CCCC[C@H](N)C(=O)O; Nva = CCC[C@H](N)C(=O)O; L5A = not defined here; A1 = not defined here; K1 = not defined here; K5 = not defined here; Aib = CC(C)(N)C(=O)O

T1: human GLP-2R (human, UniProt O95838 1-553)
T1 sequence (looked up): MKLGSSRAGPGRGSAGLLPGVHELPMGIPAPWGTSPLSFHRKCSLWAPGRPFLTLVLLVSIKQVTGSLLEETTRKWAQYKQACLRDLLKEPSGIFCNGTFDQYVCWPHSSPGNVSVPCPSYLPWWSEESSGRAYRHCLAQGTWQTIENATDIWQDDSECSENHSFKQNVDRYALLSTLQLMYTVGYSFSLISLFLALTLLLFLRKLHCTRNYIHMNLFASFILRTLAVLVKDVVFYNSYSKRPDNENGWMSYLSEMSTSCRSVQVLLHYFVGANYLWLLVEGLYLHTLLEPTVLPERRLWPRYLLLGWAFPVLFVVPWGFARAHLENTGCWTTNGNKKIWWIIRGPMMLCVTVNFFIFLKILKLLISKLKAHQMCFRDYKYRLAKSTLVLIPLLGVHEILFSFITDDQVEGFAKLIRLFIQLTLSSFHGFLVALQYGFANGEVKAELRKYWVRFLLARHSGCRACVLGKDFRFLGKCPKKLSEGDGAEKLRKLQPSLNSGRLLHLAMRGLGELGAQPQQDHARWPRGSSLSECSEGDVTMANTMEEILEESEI

B1: Conjugate 11: GLP2-2G-10Nle-1K-EX4 (SEQ ID NO. 10) with staple K5 at positions 17, 24 (peptide)
peptide: HGDGSFSDELNTILDNKAARDFIKWLIQTKITDPSSGAPPPS
modifications: not fully specified; here or on the partner: Nle at 10; staple K5 (lactam) attached at positions 17, 24 (lysines)

Biological target: GIPR
Test: cell-based or functional assay
Conditions: not given

| Molecule | IC50 [nM] (665/615 ratio, free cAMP) |
| --- | --- |
| GIP (ligand) | 0.02 |

Biological target: mouse GLP2R (mouse) (UniProt Q5IXF8)
Test: cell-based or functional assay
Conditions: not given

mouse GLP2R (mouse), sequence (Q5IXF8 whole entry): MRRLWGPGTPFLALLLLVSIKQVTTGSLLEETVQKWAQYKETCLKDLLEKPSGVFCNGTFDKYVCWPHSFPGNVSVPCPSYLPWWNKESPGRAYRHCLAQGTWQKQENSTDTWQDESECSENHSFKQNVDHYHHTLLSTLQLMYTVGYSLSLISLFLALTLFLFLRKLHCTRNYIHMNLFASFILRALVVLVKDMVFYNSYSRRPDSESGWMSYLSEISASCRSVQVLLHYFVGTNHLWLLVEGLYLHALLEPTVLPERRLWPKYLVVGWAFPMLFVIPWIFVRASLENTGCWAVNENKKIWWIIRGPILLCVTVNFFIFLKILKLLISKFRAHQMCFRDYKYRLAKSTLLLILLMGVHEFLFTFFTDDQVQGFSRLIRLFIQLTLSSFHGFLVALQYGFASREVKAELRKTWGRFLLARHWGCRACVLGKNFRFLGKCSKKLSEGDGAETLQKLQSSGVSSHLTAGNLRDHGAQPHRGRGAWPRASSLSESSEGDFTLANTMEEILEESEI

| Molecule | IC50 [nM] (665/615 ratio, free cAMP) |
| --- | --- |
| Apraglutide (peptide) | 0.04 |

Biological target: T1, human GLP-2R
Test: cell-based or functional assay
Conditions: not given

| Molecule | GLP-2R - cAMP 0% FBS/nM (EC50, CRE-luciferase reporter) [nM] | GLP-2R - cAMP 10% FBS/nM (EC50, CRE-luciferase reporter) [nM] |
| --- | --- | --- |
| HGDGSFSDE[Nle][dF]TILDNKAARDFIKWLIQTKITDPSSGAPPPS (bridge 17-24; not fully specified (bridges); ends not checked) [Conjugate 12: GLP2-2G-10Nle-11f-1K-EX4 (SEQ ID NO. 11) with staple K5 at positions 17, 24] | 2.13 |  |
| HGDGSFSDE[Nle]NTA[Nle]DNKAARDFIKWLIQTKITDPSSGAPPPS (linker 17-24 via K5; reading uncertain) [Conjugate 14: GLP2-2G-10Nle-13A-14Nle-1K-EX4 (SEQ ID NO. 13) with staple K5 at positions 17, 24] | 2.68 |  |
| HGDGSFSDE[Nle]NSLLDNKAARDFIKWLIQTKITDPSSGAPPPS (bridge 17-24; not fully specified (bridges); ends not checked) [Conjugate 13: GLP2-2G-10Nle-12S-13L-1K-EX4 (SEQ ID NO. 12) with staple K5 at positions 17, 24] | 3.78 |  |
| HGDGSFSDE[Nle]ATA[Nle]DAKAARDFIKWLIQTKITDPSSGAPPPS (linker 17-24 via K5; reading uncertain) | 1.33 |  |
| HGDGSFSDK[Nle]NTILDKLAARDFINWLIQTKITDPSSGAPPPS (linker 9-16 via K5; reading uncertain) [Conjugate 24: GLP2-2G-10Nle-5K-EX4 (SEQ ID NO. 19) with staple K5 at positions 9, 16] | 8.36 |  |
| HGDGSFSDEM[dF]TILDNKAARDFIKWLIQTKITDPSSGAPPPS (linker 17-24 via K5; reading uncertain) [Conjugate 18: GLP2-2G-11f-1K-EX4 (SEQ ID NO. 17) with staple K5 at positions 17, 24] | 1.41 |  |
| HGDGSFSDE[Nva]NTILDNCAARDFICWLIQTKITDPSSGAPPPS (linker 17-24 via L5A; reading uncertain) [Conjugate 6: GLP2-2G-10Nva-1-EX4 (SEQ ID NO. 6) with staple L5A at positions 17, 24] | 5.74 |  |
| HGDGSFSDE[Aib]NTILDNCAARDFICWLIQTKITDPSSGAPPPS (linker 17-24 via L5A; reading uncertain) [Conjugate 5: GLP2-2G-10Aib-1-EX4 (SEQ ID NO. 5) with staple L5A at positions 17, 24] | 8.71 |  |
| HGDGSFSDE[Nle]NT[Nle][Nle]DNKAARDFIKWLIQTKITDPSSGAPPPS (linker 17-24 via K5; reading uncertain) [Conjugate 15: GLP2-2G-10Nle-13Nle-14Nle-1K-EX4 (SEQ ID NO. 14) with staple K5 at positions 17, 24] | 1.99 |  |
| HGDGSFSDEMNTILDNKAARDFIKWLIQTKITDPSSGAPPPS (bridge 17-24 via K1; ends not checked) [Conjugate 19: GLP2-2G-1K-EX4 (SEQ ID NO. 16) with staple K1 at positions 17, 24] | 0.15 |  |
| HGDGSFSDEMNTILDNKAARDFIKWLIQTKITDPSSGAPPPS (bridge 17-24; not fully specified (bridges); ends not checked) [Conjugate 17: GLP2-2G-1K-EX4 (SEQ ID NO. 16) with staple K5 at positions 17, 24] | 1.07 |  |
| HGDGSFSDEVNTILDNCAARDFICWLIQTKITDPSSGAPPPS (linker 17-24 via L5A; reading uncertain) [Conjugate 7: GLP2-2G-10V-1-EX4 (SEQ ID NO. 7) with staple L5A at positions 17, 24] | 1.45 |  |
| HGDGSFSDEMCTILDNLCARDFINWLIQTKITDPSSGAPPPS (linker 11-18 via L5A; ends not checked) [Conjugate 10: GLP2-2G-6-EX4 (SEQ ID NO. 9) with staple L5A at positions 11, 18] | 2.09 | 102 |
| HGDGSFSDELNTILDNCAARDFICWLIQTKITDPSSGAPPPS (linker 17-24 via L5A; reading uncertain) [Conjugate 3: GLP2-2G-10L-1-EX4 (SEQ ID NO. 3) with staple L5A at positions 17, 24] | 0.87 |  |
| HGDGSFSDEMNTILDNXAARDFIXWLIQTKITDPSSGAPPPS (Orn at 17 and 24; staple K5 attached at positions 17, 24 (ornithines)) [Conjugate 25: GLP2-2G-1Orn-EX4 (SEQ ID NO. 20) with staple K5 at positions 17, 24] | 2.11 |  |
| HGDGSFSDEMNTILDNKAARDFIKWLIQTKITDPSSGAPPPS (bridge 17-24 via A1; ends not checked) [Conjugate 20: GLP2-2G-1K-EX4 (SEQ ID NO. 16) with staple A1 at positions 17, 24] | 0.09 |  |
| HGDGSFSDKMNTILDKLAARDFINWLIQTKITDPSSGAPPPS (bridge 9-16; not fully specified (bridges); ends not checked) [Conjugate 23: GLP2-2G-5K-EX4 (SEQ ID NO. 18) with staple K5 at positions 9, 16] | 1.25 |  |

Biological target: 168 GPCR targets (gpcrMAX Panel by DiscoverRx)
Test: cell-based or functional assay
Conditions: not given

| Molecule | PathHunter beta-arrestin enzyme fragment complementation, agonist mode, % activity [% activity] | PathHunter beta-arrestin enzyme fragment complementation, antagonist mode, % inhibition [% inhibition] |
| --- | --- | --- |
| HGDGSFSDEMNTILDNCAARDFICWLIQTKITDPSSGAPPPS (linker 17-24 via L5A; not fully specified; ends not checked) [Conjugate 1: GLP2-2G-1-EX4 (SEQ ID NO. 1) with staple L5A at positions 17, 24] | < 30 | < 35 |
| B1 | < 30 | < 35 |

System: mouse model of environmental enteric dysfunction (EED)
Test: Weaning undernutrition mouse model of environmental enteric dysfunction (EED)
Assay type: in vivo, mice
Conditions: animals weaned to CD and to RBD diet, vs untreated
Procedure: A weaning undernutrition model was used to assess the ability of GLP2-2G-10Nle-1K-EX4-K5 to treat environmental enteric dysfunction (EED). All dams were placed on an isocaloric Northeast Brazil (Regional Basic Diet—RBD), which was moderately deficient in protein, fat and minerals when their pups were 10 days old. At weaning (3 weeks of age), pups were placed on either a standard control diet (CD) or continued on RBD. At 4 weeks of age, weanlings were given drug or placebo (0.1 mg/kg formulated in PBS (vehicle)) once a day subcutaneously for 2-3 weeks. Bodyweight and food consumption were measured twice weekly. Stool was collected at weaning, 6 weeks of age, and 8 weeks of age for calorimetry and microbiome. Oral FITC-dextran was used as a measurement of barrier function. At 6 weeks of age, mice were euthanized, and jejunal tissue was collected for morphology, immunohistochemistry, and for chamber analysis of transmucosal resistance and permeability.

| Molecule | length of the small intestine |
| --- | --- |
| CC[C@H](C)[C@H](NC(=O)[C@H](Cc1ccccc1)NC(=O)[C@H](CC(=O)O)NC(=O)[C@H](CCCNC(=N)N)NC(=O)[C@H](C)NC(=O)[C@H](C)NC(=O)[C@H](CC(C)C)NC(=O)[C@H](CC(N)=O)NC(=O)[C@H](CC(=O)O)NC(=O)[C@H](CC(C)C)NC(=O)[C@@H](NC(=O)[C@@H](NC(=O)[C@H](CC(N)=O)NC(=O)[C@H](CCSC)NC(=O)[C@H](CCC(=O)O)NC(=O)[C@H](CC(=O)O)NC(=O)[C@H](CO)NC(=O)[C@H](Cc1ccccc1)NC(=O)[C@H](CO)NC(=O)CNC(=O)[C@H](CC(=O)O)NC(=O)[C@H](C)NC(=O)[C@@H](N)Cc1c[nH]cn1)[C@@H](C)O)[C@@H](C)CC)C(=O)N[C@@H](CC(N)=O)C(=O)N[C@@H](Cc1c[nH]c2ccccc12)C(=O)N[C@@H](CC(C)C)C(=O)N[C@H](C(=O)N[C@@H](CCC(N)=O)C(=O)N[C@H](C(=O)N[C@@H](CCCCN)C(=O)N[C@H](C(=O)N[C@H](C(=O)N[C@@H](CC(=O)O)C(=O)O)[C@@H](C)O)[C@@H](C)CC)[C@@H](C)O)[C@@H](C)CC [GLP-2, reference compound] | significant increase |
